Where a chain is given by its changes, count along the chain named.
B1: anti-TIM-1 monoclonal antibody 2.70.2 (antibody, human IgG4, kappa, V domains shown)
VH: QVQLVESGGGVVQPGRSLRLSCAASGFIFSRYGMHWVRQAPGKGLKWVAVIWYDGSNKLYADSVKGRFTISRDNSKNTLYLQMNSLRAEDTAVYYCARDYYDNSRHHWGFDYWGQGTLVTVSS
VL: DIVMTQTPLSLPVTPGEPASISCRSSRSLLDSDDGNTYLDWYLQKPGQSPQLLIYTLSYRASGVPDRFSGSGSGTDFTLKISRVEAEDVGVYYCMQRVEFPITFGQGTRLEIKR
notes: also called mAb 2.70.2; mAb2.70.2
B2: anti-TIM-1 monoclonal antibody 2.16 (antibody, V domains shown)
VH: EQSGGGVVKPGGSLRLSCAASGFTFSNAWMTWVRQAPGKGLEWVGRIKRRTDGGTTDYAAPVKGRFTISRDDSKNTLYLQMNNLKNEDTAVYYCTSVDNDVDYWGQGTLVTVSS
VL: not shown
notes: also called 2.16.1 (subclone)
B3: anti-TIM-1 monoclonal antibody 2.59 (antibody, V domains shown)
VH: QSGPRLVKPSQTLSLTCTVSGGSISSDGYYWSWIRQHPGKGLEWIGYIYYSGSTFYNPSLKSRVAISVDTSKNQFSLKLSSVTAADTAVYYCARESPHSSNWYSGFDCWGQGTLVTVSS
VL: TQSPDFQSVTPKEKVTITCRASQSIGSRLHWYQQKPDQSPKLLIKYASQSFSGVPSRFSGSGSGTDFTLTINSLEAEDAATYYCHQSSNLPFTFGPGTKVDIKR
B4: anti-TIM-1 monoclonal antibody 1.29 (antibody, V domains shown)
VH: QVQLQESGPGLVKPSETLSLTCTVSGGSVSSGGYYWSWIRQPPGKGLEWIGFIYYTGSTNYNPSLKSRVSISVDTSKNQFSLKLSSVTAADAAVYYCARDYDWSFHFDYWGQGTLVTVSS
VL: DIQMTQSPSSLSASIGDRVTITCRASQGIRNDLGWYQQKPGKAPKRLIYAASSLQSGVPSRFSGSGSGTEFTLTISSLQPEDFATYYCLQHNSYPLTFGGGTKVEIKR
notes: also called mAb 1.29
B5: anti-TIM-1 monoclonal antibody 2.70 (antibody, V domains shown)
VH: B1 VH
VL: B1 VL
B6: anti-TIM-1 monoclonal antibody 2.76 (antibody, V domains shown)
VH: EQSGGGVVQPGRSLRLSCAASGFTFSSYGMYWVRQAPGKGLEWVAVIWYDGSNKYYADSVKGRFTISRDNSKNTLYLQMNSLRAEDTAVYYCARDFYDSSRYHYGMDVWGQGTTVTVSS
VL: TQCPLSLPVTPGEPASISCRSSQSLLDSDDGNTYLDWYLQKPGQSPQLLIYTVSYRASGVPDRFSGSGSGTDFTLKISRVEAEDVGVYYCMQRIEFPITFGQGTRLEIKR
B7: anti-TIM-1 monoclonal antibody 1.37 (antibody, V domains shown)
VH: EVQLVESGGGLVQPGGSLRLSCAASGFTFTNYWMSWVRQAPGKGLEWVANIQQDGSEKYYVDSVRGRFTISRDNAKNSLYLQMNSLRAEDSAVYYCARWDYWGQGTLVTVSS
VL: DIVMTQTPLSSTVILGQPASISCRSSQSLVHSDGNTYLNWLQQRPGQPPRLLIYMISNRFSGVPDRFSGSGAGTDFTLKISRVEAEDVGVYYCMQATESPQTFGQGTKVEIKR
B8: anti-TIM-1 monoclonal antibody 2.61 (antibody, V domains shown)
VH: B1 VH with S7A, I28T, S30R, R31S, L59Y, A61T, A97V
VL: B4 VL with L11R, S12C, I15V, G34A, G66R, T85A, L96P, T97S, G100Q, V104L

Biological target: T1, alanine scan peptide PMPLARQNHE
T1 construct: Synthetic; third P replaced by A
T1 peptide: PMPLARQNHE
Assay: ELISA on coated synthetic peptide (alanine scan)
B1: no binding.

Biological target: T2, alanine scan peptide PMPLPRQAHE
T2 construct: Synthetic; N replaced by A
T2 peptide: PMPLPRQAHE
Assay: ELISA on coated synthetic peptide (alanine scan)
B1: no binding.

These binders were tested against T3, TIM-1 (T cell, immunoglobulin domain and mucin domain 1), cell membrane-bound (human, UniProt Q96D42 21-364) (assay: FACS on ACHN cells, normalised to isotype control pK16).
T3 construct: whole, on cells; also called TIM-1 antigen expressed on ACHN, CAKI-2, CAKI-1 cells; TIM-1 on polarized human CD4+ Th1/Th2 cells
T3 sequence (looked up): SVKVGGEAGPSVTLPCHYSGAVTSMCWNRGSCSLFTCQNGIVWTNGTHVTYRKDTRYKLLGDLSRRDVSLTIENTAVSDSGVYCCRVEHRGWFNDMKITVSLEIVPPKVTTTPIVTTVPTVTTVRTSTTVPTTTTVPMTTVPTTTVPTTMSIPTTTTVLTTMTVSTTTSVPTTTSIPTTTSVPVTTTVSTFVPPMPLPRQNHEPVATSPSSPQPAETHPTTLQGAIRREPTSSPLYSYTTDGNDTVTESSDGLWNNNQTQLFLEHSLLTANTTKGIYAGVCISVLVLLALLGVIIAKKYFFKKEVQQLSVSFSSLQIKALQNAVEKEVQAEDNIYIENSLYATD
For B2, the “Geo Mean Ratio (relative to negative control)” value was 7.9 ratio. With B1 the “Geo Mean Ratio (relative to negative control)” value was 19.4 ratio. B3 was tested, and the “Geo Mean Ratio (relative to negative control)” value was 15.2 ratio. With B4 the “Geo Mean Ratio (relative to negative control)” value was 17.9 ratio.

What follows are binders tested against T3, TIM-1 (T cell, immunoglobulin domain …) (assay: FACS on CAKI-2 cells, normalised to isotype control pK16).
For B1, the “Geo Mean Ratio (relative to negative control)” value was 8.8 ratio. In the case of B3, the “Geo Mean Ratio (relative to negative control)” value is reported as 7.7 ratio.

These binders were tested against T4, TIM-1 antigen, soluble extracellular domain of TIM-1 (CG57008-02) with a V5-HIS tag (human, UniProt Q96D42 21-288) (assay: BIAcore 2000, 25 C, mAb captured on goat anti-human surface, TIM-1 antigen injected at 292 nM).
T4 construct: also called TIM-1 immunogen; TIM-1 protein
T4 sequence: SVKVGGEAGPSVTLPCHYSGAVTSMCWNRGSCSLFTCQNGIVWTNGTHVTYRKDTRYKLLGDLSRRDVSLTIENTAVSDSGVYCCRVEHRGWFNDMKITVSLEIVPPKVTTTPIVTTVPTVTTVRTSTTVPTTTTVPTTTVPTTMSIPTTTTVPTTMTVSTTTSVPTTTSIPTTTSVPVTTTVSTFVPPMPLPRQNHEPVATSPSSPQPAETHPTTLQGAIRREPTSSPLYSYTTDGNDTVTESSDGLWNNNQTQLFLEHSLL
B2 gave a Kd of 0.79 nM. For B5, the Kd was 2.71 nM. B6 was tested, and the Kd was 0.57 nM. Binder B3 has a Kd of 0.38 nM. In the case of B7, the Kd is reported as 2.78 nM. For B4, the Kd was 3.64 nM. For B8, the Kd was 1 nM.
